# Experimental data: the MegaScale stability set (Tsuboyama et al. 2023)
# B1: 1ZHC (parent)
# chain: HEFRDEISVLKANNPHFDKIFEKHNQLDDDIKTAEQQNASDAEVSHMKKQKLKLKDEIHSMIIEYREK
# Variants of: B1
# Test: folding stability dG (cDNA display proteolysis); higher = more stable
# Details: PBS, room temperature
row,Variant,folding stability dG [kcal/mol]
1,HEVRDEISVLKANNPHFDKIFEKHNQLDDDIKTAEQQNASDAEVSHMKKQKLKLKDEIHSMIIEYREK [F3V],0.222
2,HERRDEISVLKANNPHFDKIFEKHNQLDDDIKTAEQQNASDAEVSHMKKQKLKLKDEIHSMIIEYREK [F3R],-0.674
3,HESRDEISVLKANNPHFDKIFEKHNQLDDDIKTAEQQNASDAEVSHMKKQKLKLKDEIHSMIIEYREK [F3S],0.019
4,HEWRDEISVLKANNPHFDKIFEKHNQLDDDIKTAEQQNASDAEVSHMKKQKLKLKDEIHSMIIEYREK [F3W],1.15
5,HETRDEISVLKANNPHFDKIFEKHNQLDDDIKTAEQQNASDAEVSHMKKQKLKLKDEIHSMIIEYREK [F3T],0.328
6,HEQRDEISVLKANNPHFDKIFEKHNQLDDDIKTAEQQNASDAEVSHMKKQKLKLKDEIHSMIIEYREK [F3Q],0.544
7,HEYRDEISVLKANNPHFDKIFEKHNQLDDDIKTAEQQNASDAEVSHMKKQKLKLKDEIHSMIIEYREK [F3Y],1.05
8,HEFNDEISVLKANNPHFDKIFEKHNQLDDDIKTAEQQNASDAEVSHMKKQKLKLKDEIHSMIIEYREK [R4N],0.384
9,HEFADEISVLKANNPHFDKIFEKHNQLDDDIKTAEQQNASDAEVSHMKKQKLKLKDEIHSMIIEYREK [R4A],1.26
10,HEFQDEISVLKANNPHFDKIFEKHNQLDDDIKTAEQQNASDAEVSHMKKQKLKLKDEIHSMIIEYREK [R4Q],1.08
11,HEFYDEISVLKANNPHFDKIFEKHNQLDDDIKTAEQQNASDAEVSHMKKQKLKLKDEIHSMIIEYREK [R4Y],1.25
12,HEFIDEISVLKANNPHFDKIFEKHNQLDDDIKTAEQQNASDAEVSHMKKQKLKLKDEIHSMIIEYREK [R4I],1.02
13,HEFLDEISVLKANNPHFDKIFEKHNQLDDDIKTAEQQNASDAEVSHMKKQKLKLKDEIHSMIIEYREK [R4L],1.17
14,HEFMDEISVLKANNPHFDKIFEKHNQLDDDIKTAEQQNASDAEVSHMKKQKLKLKDEIHSMIIEYREK [R4M],1.13
15,HEFSDEISVLKANNPHFDKIFEKHNQLDDDIKTAEQQNASDAEVSHMKKQKLKLKDEIHSMIIEYREK [R4S],1.05
16,HEFVDEISVLKANNPHFDKIFEKHNQLDDDIKTAEQQNASDAEVSHMKKQKLKLKDEIHSMIIEYREK [R4V],0.547
17,HEFWDEISVLKANNPHFDKIFEKHNQLDDDIKTAEQQNASDAEVSHMKKQKLKLKDEIHSMIIEYREK [R4W],1.49
18,HEFGDEISVLKANNPHFDKIFEKHNQLDDDIKTAEQQNASDAEVSHMKKQKLKLKDEIHSMIIEYREK [R4G],0.834
19,HEFFDEISVLKANNPHFDKIFEKHNQLDDDIKTAEQQNASDAEVSHMKKQKLKLKDEIHSMIIEYREK [R4F],1.5
20,HEFPDEISVLKANNPHFDKIFEKHNQLDDDIKTAEQQNASDAEVSHMKKQKLKLKDEIHSMIIEYREK [R4P],0.834

row,Variant,folding stability dG [kcal/mol]
1,HEFKDEISVLKANNPHFDKIFEKHNQLDDDIKTAEQQNASDAEVSHMKKQKLKLKDEIHSMIIEYREK [R4K],0.923
2,HEFDDEISVLKANNPHFDKIFEKHNQLDDDIKTAEQQNASDAEVSHMKKQKLKLKDEIHSMIIEYREK [R4D],1.04
3,HEFTDEISVLKANNPHFDKIFEKHNQLDDDIKTAEQQNASDAEVSHMKKQKLKLKDEIHSMIIEYREK [R4T],0.952
4,HEFHDEISVLKANNPHFDKIFEKHNQLDDDIKTAEQQNASDAEVSHMKKQKLKLKDEIHSMIIEYREK [R4H],0.919
5,HEFEDEISVLKANNPHFDKIFEKHNQLDDDIKTAEQQNASDAEVSHMKKQKLKLKDEIHSMIIEYREK [R4E],1.08
6,HEFRHEISVLKANNPHFDKIFEKHNQLDDDIKTAEQQNASDAEVSHMKKQKLKLKDEIHSMIIEYREK [D5H],1.23
7,HEFRFEISVLKANNPHFDKIFEKHNQLDDDIKTAEQQNASDAEVSHMKKQKLKLKDEIHSMIIEYREK [D5F],1.36
8,HEFRMEISVLKANNPHFDKIFEKHNQLDDDIKTAEQQNASDAEVSHMKKQKLKLKDEIHSMIIEYREK [D5M],0.985
9,HEFRGEISVLKANNPHFDKIFEKHNQLDDDIKTAEQQNASDAEVSHMKKQKLKLKDEIHSMIIEYREK [D5G],0.455
10,HEFRREISVLKANNPHFDKIFEKHNQLDDDIKTAEQQNASDAEVSHMKKQKLKLKDEIHSMIIEYREK [D5R],0.858
11,HEFRPEISVLKANNPHFDKIFEKHNQLDDDIKTAEQQNASDAEVSHMKKQKLKLKDEIHSMIIEYREK [D5P],-0.163
12,HEFRIEISVLKANNPHFDKIFEKHNQLDDDIKTAEQQNASDAEVSHMKKQKLKLKDEIHSMIIEYREK [D5I],1.04
13,HEFRAEISVLKANNPHFDKIFEKHNQLDDDIKTAEQQNASDAEVSHMKKQKLKLKDEIHSMIIEYREK [D5A],0.255
14,HEFRLEISVLKANNPHFDKIFEKHNQLDDDIKTAEQQNASDAEVSHMKKQKLKLKDEIHSMIIEYREK [D5L],0.917
15,HEFREEISVLKANNPHFDKIFEKHNQLDDDIKTAEQQNASDAEVSHMKKQKLKLKDEIHSMIIEYREK [D5E],0.721
16,HEFRTEISVLKANNPHFDKIFEKHNQLDDDIKTAEQQNASDAEVSHMKKQKLKLKDEIHSMIIEYREK [D5T],0.722
17,HEFRNEISVLKANNPHFDKIFEKHNQLDDDIKTAEQQNASDAEVSHMKKQKLKLKDEIHSMIIEYREK [D5N],0.625
18,HEFRKEISVLKANNPHFDKIFEKHNQLDDDIKTAEQQNASDAEVSHMKKQKLKLKDEIHSMIIEYREK [D5K],0.902
19,HEFRQEISVLKANNPHFDKIFEKHNQLDDDIKTAEQQNASDAEVSHMKKQKLKLKDEIHSMIIEYREK [D5Q],0.415
20,HEFRSEISVLKANNPHFDKIFEKHNQLDDDIKTAEQQNASDAEVSHMKKQKLKLKDEIHSMIIEYREK [D5S],0.508
